From publication doi:10.1101/2022.08.19.504503 come the findings set out here.

For the assay, the target named is Cdh23 with entire EC domains (Cdh23 EC 1-27) (UniProt Q99PF4). Kind of assay: cross-linking.

By stoichiometry N is commonly meant the number of molecules, sites or subunits per partner or assembly.

Turning to “Cdh23 with entire EC domains (Cdh23 EC 1-27) (from UniProt Q99PF4 24-3354) (domain or fragment)”, the stoichiometry N was determined as 2.
